Test results taken from the DeepSol protein solubility set.

Assay: soluble on expression in E. coli; label from the status in PepcDB or PDB records
With “MGHHHHHHSHMVITIYYDVKVRFIVRGCGQYISYRCQEKRNTYFAEYWYQAQCCQYDYCNSWSSPQLQSSLPEPHDRPLALPLSDSQIQWFYQALNLSLPLPNFHAGTEPDGLDPMVTLSLNLGLSFAELRRMYLFLNSSGLLVLPQAGLLTPHPS” the “soluble on expression in E. coli” value was “not soluble”. In the case of “MSGEPELIELRELAPAGRAGKGRTRLERANALRIARGTACNPTRQLVPGRGHRFQPAGPATHTWCDLCGDFIWGVVRKGLQCARLSADCKFTCHYRCRALVCLDCCGPRDLGWEPAVERDTNVDEPVEWETPDLSQAEIEQKIKEYNAQINSNLFMSLNKDGSYTGFIKVQLKLVRPVSVPSSKKPPSLQDARRGPGRGTSVRRRTSFYLPKDAVKHLHVLSRTRAREVIEALLRKFLVVDDPRKFALFERAERHGQVYLRKLLDDEQPLRLRLLAGPSDKALSFVLKENDSGEVNWDAFSMPELHNFLRILQREEEEHLRQILQKYSYCRQKIQEALHACPLGLEHHHHHH”, the “soluble on expression in E. coli” value is reported as “not soluble”. For “GPGSMHVSSPQRAKSEASQPPNGSPPLSSSEPAAVHLYDLDTVFLSKTVISLTDVFTNSTDGPFDLSPLCAPQQQGVEEQQRLQQAAATTASSPSTGDAHCSPSSGATHAHMCSTSLPFSGGSTLRPKAVARGADGQWRTVSTDRGAPASSAFTTACNKPPSQEAHARMLLVPLDSYHFLLTYHDVDVAGQLRGRCDKQTAMATMERLSAASPGCRPPRSGICVVRRLEGEQRGATKASSAATAVLAGAASATRPTLSRIAHGLPLDAFDGWVRDYTVYGLSCNEAVLRAAWEDKARERAEGTLAMPAGAVVEVGESAAPGHESAGGGGSGEERRVTGGGNSRGDNVGGVHISVPPASGSSAEATVEGAAALAPQLSDAPSVLVPTDGAAVGEGKDAATFASPDAARAAMLSPSLDRLHCSSTTSSSSTATPTPSPPTERSEEGGKVGGTVSTTMSASPASTAAQQQQQQNDVLWEEERQRTQRAAAQLRHRFLVSDSAQHALWALEVHLPAMKVRAVSPAEFYALEVEESDEERCQQLPGTARMMATMVTMKHRRHAALQKHERILLMHLHRDWRFLAGRQRLQSRAAARPSQVTATLSRARPAPTHRGRARHRRQIR”, the “soluble on expression in E. coli” value was “soluble”. For “AHHHHHHGSKVVALLSSGIDSPVAIHLMASRGVEVYPLHFRQDEVKERKVRKVVKKLQEIHGEKVKDPHTVNAYEVQAPVFEKLKEIKKGKWTCVFCKYTMYIVAESYAKKVGASAIITGDSLGQVASQTLDNLLVISTATKLPVIRPLIGLDKEEIVKIAKEIGTFEISIEEEPPCPFVPKFPVVRAGLGEFQKILSQVKDKLPRGDL”, the “soluble on expression in E. coli” value was “soluble”. In the case of “MRMRLMLLGGGNALGQALIRLGAEEDIGFLAPRPPEQGWDAASLTTLLDETRPDAVINLAFYHDWFQAEQVEAERLGAQERAVERLAELCQHYEILLVQPSSYRVFDGARATAYSEKDETLPLGLRGQALWRMEQSVRAACPRHVLIRFGWLLDESPNGLLGRFLSRAEQPQPLFLADDRRGNPTPVDDAARVVLSVLKQLDCQAPLWGTYHYGGLEATTTLALGQVILNEARTYRSNLIQEPSAEAHAARPDALDEPQHAVMVCKKILHTFGIKPRAWRAGLPALLDRYYRHV”, the “soluble on expression in E. coli” value is reported as “not soluble”. In the case of “MSKHKVSPATIAKNKKALHDYTILEKFEAGIVLQGWEVKSIRAGKVQMVDSHVHIKHGEAWLFNCLITPLLSASTHVVADAAATRKLLLNRREINKIMGRIEQKGFTCIPLSMYWKGPRVKVEIALAQGKKVHDKRQAQKDKDWAREKDRLFKKAYK”, the “soluble on expression in E. coli” value is reported as “not soluble”. For “DYQIQISISDISEDRTEHQFTSNPEVKTPVGFEQHVESIPEMEDFGLSAAELMDESVPSDFQLDIGLVDDFLEIPSHETEVPQPKVASMQPDTNAKSQKPTVHRGELEAFIYGMGIDPNMVPSQNREQWFEQLGQSFSLMLIGLMETLHNRAVFKQTNRVNHTAFRKSENNPLKFSANLEDAIHNLYNRQTSSFLKPNAAIKEAFNDIENHEQALMQGVAGTVSSVMSLVEPNTIYSDALAKDNVINKVIPARKYAQSWKRFEGIHSQLTDELVNKESPFYLEDFAKHYELALKNKG”, the “soluble on expression in E. coli” value was “not soluble”. In the case of “SWYIEEDLEKVNSNYFEEKDYELCRNELETTILDSVMKRVKGLEKVGIIYSGGVDSTLISKLASEYCEVILYSVGSENSEDLIYAERAAKDMGLDFRKKIISEDEFEEYVVKVAKAIDELDVMKLSVGIPILAASEMAKEDGIKVLLSGQGADELFAGYNRYQRILNEKGEDGLKESIISDVFDIHKINLERDDHCTMANGVELRVPFLDKFVIDVGLSIPVEYKIEEPRKKILRDIASKYVPDYIAQRPKKAAQYGSGSEKM”, the “soluble on expression in E. coli” value is reported as “not soluble”. For “MAHHHHHHMRIHHAFFRQSCRIMRGIDSARSTPTFVNGTDGMGTIHMLFSKRTHSNTTHSNADSAYMPGSNLHVEHPIVQLPARSLWCKQYPLDISLVRRGEFNDMIGRVRAARHYYQYPSLCAPKIGWNVQMFTLFDGTVFINPINLDALEVEEIAKQKSITFVEAEALWMEKKRREGKTCFAWEPCASCCFLLHFIERPSTVRVRAIAEDGNPFEVTLDKMRARMALHELDHLNGILFTRRIPDTSHVVPLEGFSTMSEWPDDYPSLEARSTFLYTTFTPPYTFITDSVEDAQLLDRKFEDGIYPGCEHDRRMRIESAAFEELQRAQWRMEKTREENSEEYDGVEGEVDEEDQEHCEETAAGGVAVKDNAPQ”, the “soluble on expression in E. coli” value was “not soluble”. For “MSLNYEGRVLVVDDVNDIRMLVGHMVQNSGLKVEYGRNGLEALDKVTDAINDGDPYDLVLIDIHMPVMNGSEAIKQIRSSGIHFPVVAMTAATMKGVRDQLISQGFTNVLEKPINHDALLKVLDAHLTAVSEPIQVETTDAHDNDASQQDESSERQHFLLVEDDVDAADITALLLESLGIDVHVAHSGQECMDVFNQRNDWSKVLMDLNLPDASGLNLAKEIHKTSPQLELVLLSGEEPDAQSMADADITKFILKPINKKVLSDLVEEGHHHHHH”, the “soluble on expression in E. coli” value was “soluble”. With “MILMESLSVSGTETVSVPQDWNVMDVIGAKSWYVVSEKEPSWEEIIKGKTVEAVDEPPSRFEVISTSPLVLKKDTKYYIYNSTLKKWLVLEYEEPQSSRKLVMNGQGKVTLLLRSSGSWNVRYYLFEDTLTGNAFLSVSGVESADVFLISRPAGEASIWKGMYLSASPSREMPEEHESEEVKVYHLGKVKDLDKSPVVNLIETNLFNVNEYYSYSFAVNDSIFDYQKTTFTRSFMTPVDLPGGTVSIFSNISGVDIMIGETSIPDTPKNSLLELPVTDSWDVRVKGEILDERNYKDTYEYERTWRVTVQNLNETESKVRINIYGNMMRLLRSSIKPLKETSDQIVFELIVPPNSEKEFEFKVRSGWLEHHHHHH” the “soluble on expression in E. coli” value was “not soluble”. With “MGSDKIHHHHHHMRITEFYVSNFRSLSEVNLKDLGGFNIVVGYNGYGKTNLLSSIFLFVKNLSAGIEKRSIEDRNQEFILLWQGYDVSKPIMIGGKVEFSPEESNKIVGKNQKITLEIINKMRYNNKFVEWNLDTLYINGSPPGEDDLKVAKKLAEYASQAIEYVPIFDQTYFDETLKRMTEMNKSPINLRKYWYDFVNLVAATIPEVKGMEFWDGRRLVLNVYNLPIYIDLAASGFQRVILMLFIIWLSGNKILLIEEPEVNMHPTLQAKIMKLIKNWTDNNILQSFLTTHSPYIVEMAADSYVVMRRVNGNSTAITVKPTPDLRGTISLLNASLSNILFSRIIILTSELAEPSVIVNWLKRLNINVEDNGISIYKVSSDLELQHWLKLKNMLNLDVIFLGLCDKLDMSLKDYCVPLSREVENFYSKQALLEVLRRLGIYPDEKEIRDLGKEENLRWIINVLRKRGIEYEKLRMSIGELITDVDSIEIPKEIEILANKIKSLQATL” the “soluble on expression in E. coli” value was “not soluble”. In the case of “MGHHHHHHSHMEVVLPLDPAVPAPLCPHGPTLLFVKVTQGKEETRRFYACSACRDRKDCNFFQWEDEKLSGARLAAREAHNRRCQPPLSRTQCVERYLKFIELPLTQRKFCQTCQQLLLPDDWGQHSEHQVLGNVSITQLRRPSQLLYPLENKKTNAQYLFADRSCQFLVDLLSALGFRRVLCVGTPRLHELIKLTASGDKKSNIKSLLLDIDFR”, the “soluble on expression in E. coli” value is reported as “not soluble”. For “MVHTADNAWRAHIPLMYREDFLCSSGVARWNEEFPRHCVVSQHDRHKTKSVLVILFLIAMRNIKNNRGTFTRIKDRLSSALKSPASLFRRSPEISLREDILSWKKSPHSLAASEYGGSDLLVQFLKQQTSDDYVDFWLESGEYRWTRTKPGRKRDIEAQRIYDKFVYGECPRKIAHLEKMCFVSRQGPTGRDVFICAQAYVGTNFPKDSYKKFLQDPIYLNLLKTVSSGATQLNE”, the “soluble on expression in E. coli” value was “not soluble”.
